From paper PMC7954794 (2021)

B1: S. cerevisiae Abp1 (full length; SH3 domain 535-592 mutated) / Hua2 (parent complex)
chain 1: MALEPIDYTTHSREIDAEYLKIVRGSDPDTTWLIISPNAKKEYEPESTGSSFHDFLQLFDETKVQYGLARVSPPGSDVEKIIIIGWCPDSAPLKTRASFAANFAAVANNLFKGYHVQVTARDEDDLDENELLMKISNAAGARYSIQTSSKQQGKASTPPVKKSFTPSKSPAPVSKKEPVKTPSPAPAAKISSRVNDNNDDDDWNEPELKERDFDQAPLKPNQSSYKPIGKIDLQKVIAEEKAKEDPRLVQKPTAAGSKIDPSSDIANLKNESKLKRDSEFNSFLGTTKPPSMTESSLKNDDDKVIKGFRNEKSPAQLWAERKAKQNSGNAETKAEAPKPEVPEDEPEGEPDVKDLKSKFEGLAASEKEEEEMENKFAPPPKKSEPTIISPKPFSKPQEPVKAEEAEQPKTDYKKIGNPLPGMHIEADNEEEPEENDDDWDDDEDEAAQPPLPSRNVASGAPVQKEEPEQEEIAPSLPSRNSIPAPKQEEAPEQAPEEEIEEEAEEAAPQLPSRSSAAPPPPPRRATPEKKPKENPWATAEYDYDAAEDNELTFVENDKIINIEFVDDDWWLGELEKDGSKGLFPSNYVSLGN
chain 2: MQQTKFGKMYLDHDSVVEYSEDEIVEADRITLGYKKRLSMIENQMRHLLEDFSLDVQQIEPILADLQKYYDAFLQLLQKRNKSLQCKRSTHQPVPSPMNSQTSTNAKVNLSGKLMKFQLNSVQKFDEENILRILQNKIEFEHYFQIDKGKKQKVLLLAVYQCLNGPTRLHKVLNIEGIIHNNSIRTILGKQVSSSKWTVFLYDVKLVLLAHRQDVPNLETSKMIVRYGDLFPCALYFKDHTAY

Variants of: B1
Test: DHFR protein-fragment complementation in yeast (Abp1-DHFR F[1,2] x partner-DHFR F[3]), deep mutational scanning, second methotrexate selection vs reference; S. cerevisiae, DHFR-PCA selection in liquid with methotrexate at 30 C, two 72 h selections (the score uses the second); reference = the pre-selection culture

| Variant | screen value |
| --- | --- |
| chain 1 K576G | -0.96 DMS score: mean over two replicates of log2(f_test/f_ref + 0.5)/ln 2, minus the synonymous-codon median (not a log2 … |
| chain 1 A546G | 0.413 DMS score: mean over two replicates of log2(f_test/f_ref + 0.5)/ln 2, minus the synonymous-codon median (not a log2 … |
| chain 1 A546V | -0.179 DMS score: mean over two replicates of log2(f_test/f_ref + 0.5)/ln 2, minus the synonymous-codon median (not a log2 … |
| chain 1 A537G | 0.922 DMS score: mean over two replicates of log2(f_test/f_ref + 0.5)/ln 2, minus the synonymous-codon median (not a log2 … |
| chain 1 D542S | 0.456 DMS score: mean over two replicates of log2(f_test/f_ref + 0.5)/ln 2, minus the synonymous-codon median (not a log2 … |
| chain 1 D542Q | 0.542 DMS score: mean over two replicates of log2(f_test/f_ref + 0.5)/ln 2, minus the synonymous-codon median (not a log2 … |
| chain 1 D542G | 0.784 DMS score: mean over two replicates of log2(f_test/f_ref + 0.5)/ln 2, minus the synonymous-codon median (not a log2 … |
| chain 1 I560N | -0.729 DMS score: mean over two replicates of log2(f_test/f_ref + 0.5)/ln 2, minus the synonymous-codon median (not a log2 … |
| chain 1 I560S | -0.964 DMS score: mean over two replicates of log2(f_test/f_ref + 0.5)/ln 2, minus the synonymous-codon median (not a log2 … |
| chain 1 I562L | -0.495 DMS score: mean over two replicates of log2(f_test/f_ref + 0.5)/ln 2, minus the synonymous-codon median (not a log2 … |
| chain 1 E547H | -2.24 DMS score: mean over two replicates of log2(f_test/f_ref + 0.5)/ln 2, minus the synonymous-codon median (not a log2 … |
| chain 1 E555P | -0.507 DMS score: mean over two replicates of log2(f_test/f_ref + 0.5)/ln 2, minus the synonymous-codon median (not a log2 … |
| chain 1 E555F | -0.693 DMS score: mean over two replicates of log2(f_test/f_ref + 0.5)/ln 2, minus the synonymous-codon median (not a log2 … |
| chain 1 E555Q | 0.0961 DMS score: mean over two replicates of log2(f_test/f_ref + 0.5)/ln 2, minus the synonymous-codon median (not a log2 … |
| chain 1 L571Q | -0.179 DMS score: mean over two replicates of log2(f_test/f_ref + 0.5)/ln 2, minus the synonymous-codon median (not a log2 … |
| chain 1 L571W | -0.19 DMS score: mean over two replicates of log2(f_test/f_ref + 0.5)/ln 2, minus the synonymous-codon median (not a log2 … |

| Variant | screen value |
| --- | --- |
| chain 1 L571A | -0.0753 DMS score: mean over two replicates of log2(f_test/f_ref + 0.5)/ln 2, minus the synonymous-codon median (not a log2 … |
| chain 1 D566T | -2.82 DMS score: mean over two replicates of log2(f_test/f_ref + 0.5)/ln 2, minus the synonymous-codon median (not a log2 … |
| chain 1 D566G | -2.66 DMS score: mean over two replicates of log2(f_test/f_ref + 0.5)/ln 2, minus the synonymous-codon median (not a log2 … |
| chain 1 G578R | -0.535 DMS score: mean over two replicates of log2(f_test/f_ref + 0.5)/ln 2, minus the synonymous-codon median (not a log2 … |
| chain 1 G578Q | -0.153 DMS score: mean over two replicates of log2(f_test/f_ref + 0.5)/ln 2, minus the synonymous-codon median (not a log2 … |
| chain 1 D557E | -0.885 DMS score: mean over two replicates of log2(f_test/f_ref + 0.5)/ln 2, minus the synonymous-codon median (not a log2 … |
| chain 1 F564P | -2.61 DMS score: mean over two replicates of log2(f_test/f_ref + 0.5)/ln 2, minus the synonymous-codon median (not a log2 … |
| chain 1 F564Q | -1.38 DMS score: mean over two replicates of log2(f_test/f_ref + 0.5)/ln 2, minus the synonymous-codon median (not a log2 … |
| chain 1 F564E | 0.712 DMS score: mean over two replicates of log2(f_test/f_ref + 0.5)/ln 2, minus the synonymous-codon median (not a log2 … |
| chain 1 D548K | -0.245 DMS score: mean over two replicates of log2(f_test/f_ref + 0.5)/ln 2, minus the synonymous-codon median (not a log2 … |
| chain 1 D548A | 0.159 DMS score: mean over two replicates of log2(f_test/f_ref + 0.5)/ln 2, minus the synonymous-codon median (not a log2 … |
| chain 1 D548V | 0.053 DMS score: mean over two replicates of log2(f_test/f_ref + 0.5)/ln 2, minus the synonymous-codon median (not a log2 … |
| chain 1 D548R | -1.06 DMS score: mean over two replicates of log2(f_test/f_ref + 0.5)/ln 2, minus the synonymous-codon median (not a log2 … |
| chain 1 D548I | -0.724 DMS score: mean over two replicates of log2(f_test/f_ref + 0.5)/ln 2, minus the synonymous-codon median (not a log2 … |
| chain 1 D548N | 0.0071 DMS score: mean over two replicates of log2(f_test/f_ref + 0.5)/ln 2, minus the synonymous-codon median (not a log2 … |
| chain 1 D548T | 0.434 DMS score: mean over two replicates of log2(f_test/f_ref + 0.5)/ln 2, minus the synonymous-codon median (not a log2 … |

Next, values leading:

| screen value | Variant |
| --- | --- |
| -0.621 DMS score: mean over two replicates of log2(f_test/f_ref + 0.5)/ln 2, minus the synonymous-codon median (not a log2 … | chain 1 T552K |
| 0.394 DMS score: mean over two replicates of log2(f_test/f_ref + 0.5)/ln 2, minus the synonymous-codon median (not a log2 … | chain 1 N592G |
| 0.526 DMS score: mean over two replicates of log2(f_test/f_ref + 0.5)/ln 2, minus the synonymous-codon median (not a log2 … | chain 1 N592S |
| 0.35 DMS score: mean over two replicates of log2(f_test/f_ref + 0.5)/ln 2, minus the synonymous-codon median (not a log2 … | chain 1 N592T |
| 0.019 DMS score: mean over two replicates of log2(f_test/f_ref + 0.5)/ln 2, minus the synonymous-codon median (not a log2 … | chain 1 N592M |
| 1.16 DMS score: mean over two replicates of log2(f_test/f_ref + 0.5)/ln 2, minus the synonymous-codon median (not a log2 … | chain 1 N592E |
| 0.855 DMS score: mean over two replicates of log2(f_test/f_ref + 0.5)/ln 2, minus the synonymous-codon median (not a log2 … | chain 1 N592Q |
| 0.212 DMS score: mean over two replicates of log2(f_test/f_ref + 0.5)/ln 2, minus the synonymous-codon median (not a log2 … | chain 1 N592F |
| 0.381 DMS score: mean over two replicates of log2(f_test/f_ref + 0.5)/ln 2, minus the synonymous-codon median (not a log2 … | chain 1 N592A |
| -0.477 DMS score: mean over two replicates of log2(f_test/f_ref + 0.5)/ln 2, minus the synonymous-codon median (not a log2 … | chain 1 Y587H |
| -1.17 DMS score: mean over two replicates of log2(f_test/f_ref + 0.5)/ln 2, minus the synonymous-codon median (not a log2 … | chain 1 Y587V |
| 0.106 DMS score: mean over two replicates of log2(f_test/f_ref + 0.5)/ln 2, minus the synonymous-codon median (not a log2 … | chain 1 N549H |
| 1.95 DMS score: mean over two replicates of log2(f_test/f_ref + 0.5)/ln 2, minus the synonymous-codon median (not a log2 … | chain 1 N549E |
| 2.13 DMS score: mean over two replicates of log2(f_test/f_ref + 0.5)/ln 2, minus the synonymous-codon median (not a log2 … | chain 1 N549A |
| 1.33 DMS score: mean over two replicates of log2(f_test/f_ref + 0.5)/ln 2, minus the synonymous-codon median (not a log2 … | chain 1 N549G |
| 1.15 DMS score: mean over two replicates of log2(f_test/f_ref + 0.5)/ln 2, minus the synonymous-codon median (not a log2 … | chain 1 N549Q |
| 2.18 DMS score: mean over two replicates of log2(f_test/f_ref + 0.5)/ln 2, minus the synonymous-codon median (not a log2 … | chain 1 N549C |
| 0.964 DMS score: mean over two replicates of log2(f_test/f_ref + 0.5)/ln 2, minus the synonymous-codon median (not a log2 … | chain 1 V565W |
| -0.156 DMS score: mean over two replicates of log2(f_test/f_ref + 0.5)/ln 2, minus the synonymous-codon median (not a log2 … | chain 1 V565D |
| -1.58 DMS score: mean over two replicates of log2(f_test/f_ref + 0.5)/ln 2, minus the synonymous-codon median (not a log2 … | chain 1 V565H |
| -2.71 DMS score: mean over two replicates of log2(f_test/f_ref + 0.5)/ln 2, minus the synonymous-codon median (not a log2 … | chain 1 V565R |
| -0.425 DMS score: mean over two replicates of log2(f_test/f_ref + 0.5)/ln 2, minus the synonymous-codon median (not a log2 … | chain 1 V565Y |

| screen value | Variant |
| --- | --- |
| -1.23 DMS score: mean over two replicates of log2(f_test/f_ref + 0.5)/ln 2, minus the synonymous-codon median (not a log2 … | chain 1 V565L |
| -0.327 DMS score: mean over two replicates of log2(f_test/f_ref + 0.5)/ln 2, minus the synonymous-codon median (not a log2 … | chain 1 V565Q |
| 0.916 DMS score: mean over two replicates of log2(f_test/f_ref + 0.5)/ln 2, minus the synonymous-codon median (not a log2 … | chain 1 S589D |
| -0.753 DMS score: mean over two replicates of log2(f_test/f_ref + 0.5)/ln 2, minus the synonymous-codon median (not a log2 … | chain 1 S589F |
| 0.299 DMS score: mean over two replicates of log2(f_test/f_ref + 0.5)/ln 2, minus the synonymous-codon median (not a log2 … | chain 1 S589C |
| 0.0382 DMS score: mean over two replicates of log2(f_test/f_ref + 0.5)/ln 2, minus the synonymous-codon median (not a log2 … | chain 1 S589W |
| 0.254 DMS score: mean over two replicates of log2(f_test/f_ref + 0.5)/ln 2, minus the synonymous-codon median (not a log2 … | chain 1 S589T |
| 0.273 DMS score: mean over two replicates of log2(f_test/f_ref + 0.5)/ln 2, minus the synonymous-codon median (not a log2 … | chain 1 S589G |
| 0.128 DMS score: mean over two replicates of log2(f_test/f_ref + 0.5)/ln 2, minus the synonymous-codon median (not a log2 … | chain 1 S589H |
| 1.04 DMS score: mean over two replicates of log2(f_test/f_ref + 0.5)/ln 2, minus the synonymous-codon median (not a log2 … | chain 1 S589R |
| 0.444 DMS score: mean over two replicates of log2(f_test/f_ref + 0.5)/ln 2, minus the synonymous-codon median (not a log2 … | chain 1 N556C |
| -0.751 DMS score: mean over two replicates of log2(f_test/f_ref + 0.5)/ln 2, minus the synonymous-codon median (not a log2 … | chain 1 N556M |
| 0.625 DMS score: mean over two replicates of log2(f_test/f_ref + 0.5)/ln 2, minus the synonymous-codon median (not a log2 … | chain 1 N556G |
| -0.482 DMS score: mean over two replicates of log2(f_test/f_ref + 0.5)/ln 2, minus the synonymous-codon median (not a log2 … | chain 1 N556L |
| 0.279 DMS score: mean over two replicates of log2(f_test/f_ref + 0.5)/ln 2, minus the synonymous-codon median (not a log2 … | chain 1 N556T |
| -0.987 DMS score: mean over two replicates of log2(f_test/f_ref + 0.5)/ln 2, minus the synonymous-codon median (not a log2 … | chain 1 T538A |
| 0.677 DMS score: mean over two replicates of log2(f_test/f_ref + 0.5)/ln 2, minus the synonymous-codon median (not a log2 … | chain 1 T538L |
| -0.471 DMS score: mean over two replicates of log2(f_test/f_ref + 0.5)/ln 2, minus the synonymous-codon median (not a log2 … | chain 1 T538N |
| 0.0179 DMS score: mean over two replicates of log2(f_test/f_ref + 0.5)/ln 2, minus the synonymous-codon median (not a log2 … | chain 1 S579Q |
| 0.286 DMS score: mean over two replicates of log2(f_test/f_ref + 0.5)/ln 2, minus the synonymous-codon median (not a log2 … | chain 1 S579R |
| -0.28 DMS score: mean over two replicates of log2(f_test/f_ref + 0.5)/ln 2, minus the synonymous-codon median (not a log2 … | chain 1 S579K |
